Results on one substance are retold here after patent US7332473B2, “Peptides and medicinal compositions containing the same” (priority 2002, dated 2008).

A short description of data set [1]: Helical content from circular dichroism spectra. The class given is physicochemical. The settings on record: 20 mM Tris-HCl buffer (pH 7.4), calculation by Greenfield et al. As for the experimental part:
VIP (peptide 1, SEQ ID NO: 2), peptide 7 (SEQ ID NO: 8) corresponding to 25 residues at the N-terminus of VIP, and peptide 8 (SEQ ID NO: 9), which is a peptide 7 derivative with its methionine-17 being oxidized, were dissolved in a 20 mM Tris-HCl buffer (pH 7.4), and the circular dichroism spectra thereof were examined using the Jasco J-720 (Jasco Corporation). According to analytical calculation of higher-order structure by Greenfield et al., the helical content of peptide 1 was about 50% (FIG. 2).

In data set [2] the test system is murine gastric smooth muscles. In words: Inhibition of carbachol-induced constriction of murine gastric smooth muscle (Magnus apparatus). On the set-up: species or system ICR mice. The settings on record: final concentration 10^−6 M, peptide 1 = 100%.

Square brackets hold non-standard residues; d marks the D form. Ends that are not written are not given here. Met(O) = CS(=O)CC[C@H](N)C(=O)O

For “His-Ser-Asp-Ala-Val-Phe-Thr-Asp-Asn-Tyr-Thr-Arg-Leu-Arg-Lys-Gln-Met(O)-Ala-Val-Lys-Lys-Tyr-Leu-Asn-Ser-NH2 (HSDAVFTDNYTRLRKQ[Met(O)]AVKKYLNS-NH2; N-terminus assumed; SMILES CC(C)C[C@H](NC(=O)[C@H](Cc1ccc(O)cc1)NC(=O)[C@H](CCCCN)NC(=O)[C@H](CCCCN)NC(=O)[C@@H](NC(=O)[C@H](C)NC(=O)[C@H](CCS(C)=O)NC(=O)[C@H](CCC(N)=O)NC(=O)[C@H](CCCCN)NC(=O)[C@H](CCCNC(=N)N)NC(=O)[C@H](CC(C)C)NC(=O)[C@H](CCCNC(=N)N)NC(=O)[C@@H](NC(=O)[C@H](Cc1ccc(O)cc1)NC(=O)[C@H](CC(N)=O)NC(=O)[C@H](CC(=O)O)NC(=O)[C@@H](NC(=O)[C@H](Cc1ccccc1)NC(=O)[C@@H](NC(=O)[C@H](C)NC(=O)[C@H](CC(=O)O)NC(=O)[C@H](CO)NC(=O)[C@@H](N)Cc1c[nH]cn1)C(C)C)[C@@H](C)O)[C@@H](C)O)C(C)C)C(=O)N[C@@H](CC(N)=O)C(=O)N[C@@H](CO)C(N)=O) [Peptide 8]”, the helical content entry in data set [1] is reported as “reduced to about half that of peptide 1”. The “maximal inhibition of murine gastric smooth muscle constriction (activity, in words)” value in data set [2] was “significantly attenuated compared to that of peptide 7”.
